Laboratory results published in the MegaScale stability set (Tsuboyama et al. 2023).

B1: 5KPH (parent)
chain: EEKRQVKQVAKEKLLEQSPNSKVQVRRVQKQGNTIRVELELRTNGKKENYTVEVERQGNTWTVKRITRT

Variants of: B1
Assay: folding stability dG (cDNA display proteolysis); higher = more stable
Settings: PBS, room temperature

Variant	folding stability dG [kcal/mol]
A10F	2.24
A10G	2.6
A10H	1.69
A10I	4.24
A10K	1.92
A10L	3.55
A10M	2.73
A10N	1.88
A10P	1.77
A10Q	1.91
A10R	2.02
A10S	2.92
A10T	2.76
A10V	3.78
A10W	2.27
A10Y	1.96
K11A	3.8
K11C	3.75
K11D	1.94
K11E	3.44
K11F	3.33
K11G	2.74
K11H	2.85
K11I	4.55

Variant	folding stability dG [kcal/mol]
K11L	3.99
K11M	4.37
K11N	2.38
K11P	2.01
K11Q	3.45
K11R	3.94
K11S	3.8
K11T	3.86
K11V	4.49
K11W	3.24
K11Y	3.32
E12A	4.15
E12C	3.52
E12D	4.17
E12F	2.78
E12G	3.34
E12H	3.53
E12I	3.56
E12K	3.83
E12L	3.47
E12M	3.67
E12N	3.73
E12P	1.8
E12Q	4.02

Variant	folding stability dG [kcal/mol]
E12R	3.89
E12S	3.79
E12T	3.6
E12V	3.21
E12W	2.92
E12Y	2.83
K13A	4.53
K13C	3.62
K13D	1.86
K13E	2.79
K13F	3.99
K13G	3.55
K13H	3.57
K13I	4.04
K13L	3.42
K13M	3.7
K13N	2.71
K13P	2.43
K13Q	3.24
K13R	3.61
K13S	3.66
K13T	3.78
K13V	4.12
K13W	3.48

Variant	folding stability dG [kcal/mol]
K13Y	4.07
L14A	3.13
L14C	3.29
L14D	1.74
L14E	1.7
L14F	2.92
L14G	2.07
L14H	1.79
L14I	3.75
L14K	2.18
L14M	4.02
L14N	1.92
L14P	1.78
L14Q	1.9
L14R	2.08
L14S	2.17
L14T	2.26
L14V	3.65
L14W	2.29
L14Y	1.95
L15A	2.99
L15C	3.13
L15D	2.07
L15E	3.1

Variant	folding stability dG [kcal/mol]
L15F	3.03
L15G	2.53
L15H	2.98
L15I	3.02
L15K	3.36
L15M	3.7
L15N	2.5
L15P	1.87
L15Q	3.42
L15R	3.33
L15S	2.83
L15T	2.92
L15V	3.01
L15W	2.92
L15Y	3.14
E16A	3.8
E16C	3.27
E16D	3.16
E16F	2.82
E16G	3.25
E16H	3.17
E16I	3.04
E16K	3.24
E16L	3.47

Variant	folding stability dG [kcal/mol]
E16M	3.38
E16N	3.21
E16P	2.15
E16Q	3.77
E16R	3.08
E16S	3.55
E16T	3.34
E16V	2.86
E16W	2.86
E16Y	2.61
Q17A	3.68
Q17C	3.75
Q17D	3.46
Q17E	3.31
Q17F	4.12
Q17G	3.64
Q17H	4.04
Q17I	4.39
Q17K	3.77
Q17L	4.54
Q17M	4.52
Q17N	3.69
Q17P	1.82
Q17R	3.92

Variant	folding stability dG [kcal/mol]
Q17S	3.59
Q17T	3.83
Q17V	3.91
Q17W	3.6
Q17Y	4
S18A	3.8
S18C	3.86
S18D	3.23
S18E	3.57
S18F	4.68
S18G	2.56
S18H	4.66
S18I	3.93
S18K	3.83
S18L	4.03
S18M	4.05
S18N	4.47
S18P	1.99
S18Q	3.82
S18R	3.82
S18T	3.35
S18V	3.94
S18W	4.39
S18Y	4.74

Variant	folding stability dG [kcal/mol]
P19A	2.83
P19C	3.04
P19D	2.31
P19E	2.5
P19F	2.54
P19G	2.7
P19H	2.92
P19I	2.83
P19K	3.03
P19L	2.64
P19M	2.71
P19N	2.57
P19Q	2.85
P19R	2.76
P19S	2.77
P19T	2.69
P19V	2.82
P19W	2.15
P19Y	2.13
N20A	3.77
N20C	3.53
N20D	3.66
N20E	3.53
N20F	3.35

Variant	folding stability dG [kcal/mol]
N20G	4.21
N20H	3.64
N20I	3.03
N20K	3.55
N20L	3.6
N20M	3.58
N20P	2.3
N20Q	3.62
N20R	3.5
N20S	3.81
N20T	3.6
N20V	2.78
N20W	2.38
N20Y	3.32
S21A	3.98
S21C	3.12
S21D	2.23
S21E	1.96
S21F	2.65
S21G	4.01
S21H	2.6
S21I	2.46
S21K	2.16
S21L	2.57

Variant	folding stability dG [kcal/mol]
S21M	2.75
S21N	2.38
S21P	2.37
S21Q	2.31
S21R	2.18
S21T	2.81
S21V	3.17
S21W	2.89
S21Y	2.67
K22A	3.71
K22C	3.65
K22D	3.8
K22E	4.13
K22F	4.16
K22G	3.2
K22H	3.91
K22I	4.01
K22L	3.99
K22M	3.85
K22N	3.62
K22P	2.37
K22Q	4.05
K22R	3.85
K22S	3.83

Variant	folding stability dG [kcal/mol]
K22T	4.16
K22V	4.01
K22W	4.06
K22Y	4.05
V23A	3.6
V23C	3.17
V23D	1.23
V23E	1.2
V23F	2.6
V23G	1.59
V23H	1.57
V23I	3.9
V23K	1.37
V23L	3.07
V23M	3.08
V23N	1.26
V23P	2.68
V23Q	1.79
V23R	1.43
V23S	2.02
V23T	2.51
V23W	2.67
V23Y	1.94
Q24A	3.97

Variant	folding stability dG [kcal/mol]
Q24C	3.83
Q24D	3.53
Q24E	3.67
Q24F	4.47
Q24G	3.09
Q24H	4.28
Q24I	4.3
Q24K	4.33
Q24L	4.38
Q24M	4.43
Q24N	3.77
Q24P	1.25
Q24R	4.41
Q24S	4.13
Q24T	4.24
Q24V	4.25
Q24W	4.4
Q24Y	4.48
V25A	2.95
V25C	3.09
V25D	1.17
V25E	1.74
V25F	3.77
V25G	1.64

Variant	folding stability dG [kcal/mol]
V25H	2.19
V25I	3.76
V25K	1.3
V25L	2.91
V25M	2.63
V25N	1.72
V25P	2.2
V25Q	1.67
V25R	1.71
V25S	1.84
V25T	2.85
V25W	2.7
V25Y	2.81
R26A	3.09
R26C	3.65
R26D	2.16
R26E	2.58
R26F	3.7
R26G	3.32
R26H	3.56
R26I	4.25
R26K	4
R26L	4.62
R26M	4.11

Variant	folding stability dG [kcal/mol]
R26N	3.51
R26P	1.51
R26Q	3.49
R26S	3.35
R26T	3.92
R26V	4.16
R26W	3.49
R26Y	3.53
R27A	3.61
R27C	3.45
R27D	3.1
R27E	2.76
R27F	3.84
R27G	3.64
R27H	3.71
R27I	3.22
R27K	3.62
R27L	3.53
R27M	3.43
R27N	3.56
R27P	1.38
R27Q	3.3
